Several values for one entry are separate records, joined by “and”; a condition that tells them apart may be missing. Identical values can stand only once. Like-named read-outs stand apart in the source and are kept apart here.
Assays:
[1] = biological target: T1, human CD137 expressed on cells (human, UniProt Q07011 24-255); assay: cell-based or functional assay
[2] = biological target: T1, human CD137 expressed on cells; assay: cell-based or functional assay; remark: listed apart in the source
[3] = biological target: T1, human CD137 expressed on cells; assay: cell-based or functional assay; remark: listed apart in the source
human serum albumin = biological target: T2, human serum albumin (human, UniProt P02768 25-609); assay: SPR (Biacore T200); SA amine-coupled; pH 5.5
T2 construct: Amine-coupled to a CM5 chip; assay at pH 5.5; also called HSA; human SA

[4] = biological target: human PD-L1-Fc chimeric protein (human, UniProt Q9NZQ7 19-239); assay: SPR (Biacore T200); PD-L1-Fc captured by anti-human Fc
[5] = biological target: human PD-L1 expressed on cells (human, UniProt Q9NZQ7 19-290); assay: cell-based or functional assay
[6] = biological target: T1, human CD137 expressed on cells; assay: cell-based or functional assay; remark: listed apart in the source
biotinylated human PD-L1 [7] = biological target: T3, biotinylated human PD-L1 (human, UniProt Q9NZQ7 19-238, limits assumed, biotinylated); assay: competition ELISA; coated human B7.1 as competitor; biotinylated PD-L1 pre-incubated with inhibitor
T3 construct: also called biotinylated PD-L1

biotinylated human PD-L1 [8] = biological target: T3, biotinylated human PD-L1; assay: competition ELISA; coated human PD-1 as competitor; biotinylated human PD-L1 pre-incubated with inhibitor
[9] = biological target: T1, human CD137 expressed on cells; assay: cell-based or functional assay; remark: listed apart in the source
[10] = biological target: T1, human CD137 expressed on cells; assay: cell-based or functional assay; remark: listed apart in the source
[11] = biological target: T1, human CD137 expressed on cells; assay: cell-based or functional assay; remark: listed apart in the source
[12] = biological target: T1, human CD137 expressed on cells; assay: cell-based or functional assay; remark: listed apart in the source
[13] = biological target: T1, human CD137 expressed on cells; assay: cell-based or functional assay; remark: listed apart in the source
[14] = biological target: T1, human CD137 expressed on cells; assay: cell-based or functional assay; remark: listed apart in the source

Row | Binder | EC50 in ng/ml, CD137 activation, NFkB-luciferase Jurkat reporter assay, PD-L1 expressing CHO cells, 6h, + HSA [1] [ng/mL] | EC50 in ng/ml, CD137 activation, NFkB-luciferase Jurkat reporter assay, PD-L1 expressing CHO cells, 24h, + HSA [2] [ng/mL] | binding result (human serum albumin) | binding result [4] | IC50 (ng/ml), neutralization of PD-L1/PD-1 interaction, NFAT-luciferase reporter gene assay [5] [ng/mL] | EC50 in ng/ml, CD137 activation, NFkB-luciferase Jurkat reporter assay, CHO-PD-L1 cells [6] [ng/mL] | max. activation (%), NF-kB reporter gene, CHO-PD-L1; HSA: no [3] [%] | IC50 (biotinylated human PD-L1 [7]) [µg/mL] | IC50 (biotinylated human PD-L1 [8]) [µg/mL] | EC50 in ng/ml, CD137 activation, NFkB-luciferase Jurkat reporter assay, CHO-PD-L1 cells [9] | EC50 in ng/ml, CD137 activation, NFkB-luciferase Jurkat reporter assay, HCC827 cells without IFNg [10] | EC50 in ng/ml, CD137 activation, NFkB-luciferase Jurkat reporter assay, HCC827 cells stimulated with IFNg [11] | EC50 in ng/ml, CD137 activation, NFkB-luciferase Jurkat reporter assay, PD-L1 expressing CHO cells, 6h [1] [ng/mL] | EC50 in ng/ml, CD137 activation, NFkB-luciferase Jurkat reporter assay, PD-L1 expressing CHO cells, 24h [2] [ng/mL] | EC50 in ng/ml, CD137 activation, NFkB-luciferase Jurkat reporter assay, HCC827 with IFNy stimulation, 24h [12] [ng/mL] | EC50 in ng/ml, CD137 activation, NFkB-luciferase Jurkat reporter assay, HCC827 without IFNy stimulation, 24h [12] [ng/mL] | also measured
1 | PRO951: 38-27-C05 sc02 scDb-i/33-03-G02 sc01 scDb-o (bispecific antibody, anti-PD-L1xCD137 scDb) DIQMTQSPSSLSASVGDRVTITCQASQSINDYLAWYQQKPGKAPKLLIYKASTLASGVPSRFSGSGSGTDFTLTISSLQPEDFATYYCQQGYIITDIDNVFGTGTKVTVLGGGGGSEVQLVESGGGLVQPGGSLRLSCAASGFSFNNDYDMCWVRQAPGKGLEWIGCIDTGDGSTYYASWAKGRFTISRDNSKNTVYLQMNSLRAEDTAVYYCAREAASSSGYGMGYFDLWGQGTLVTVSSGGGGSGGGGSGGGGSGGGGSIQMTQSPSSLSASVGDRVTITCQSSQSVYDNNWLAWYQQKPGKAPKLLIYRASNLASGVPSRFSGSGSGTDFTLTISSLQPEDFATYYCQGTYLSSNWYWAFGTGTKVTVLGGGGGSQVQLQESGPGLVKPSETLSLTCKVSGFSFSSGYDMCWIRQPPGKGLEWIGCVVAGSVDITYYASWAKGRVTISVDSSKNQFSLKLSSVTAADTAVYYCARKDAYSDAFNLWGQGTLVTVSS |  |  |  |  | 88.5 | 33.7 | 432 | 0.0093 | 0.0095 |  |  |  |  |  |  |  | 
2 | PRO885: 38-02-A04 sc01 scDb-i/33-03-G02 sc01 scDb-o (bispecific antibody, anti-PD-L1xCD137 scDb, CDR grafts of both domains) DIQMTQSPSSLSASVGDRVTITCQASQSINDYLAWYQQKPGKAPKLLIYKASTLASGVPSRFSGSGSGTDFTLTISSLQPEDFATYYCQQGYIITDIDNVFGTGTKVTVLGGGGGSQVQLQESGPGLVKPSETLSLTCKVSGFSFSNSYWICWIRQPPGKGLEWIGCTFVGSSDSTYYANWAKGRVTISVDSSKNQFSLKLSSVTAADTAVYYCARHPSDAVYGYANNLWGQGTLVTVSSGGGGSGGGGSGGGGSGGGGSIQMTQSPSSLSASVGDRVTITCQASQSINNVLAWYQQKPGKAPKLLIYRASTLASGVPSRFSGSGSGTDFTLTISSLQPEDFATYYCQSSYGNYGDFGTGTKVTVLGGGGGSQVQLQESGPGLVKPSETLSLTCKVSGFSFSSGYDMCWIRQPPGKGLEWIGCVVAGSVDITYYASWAKGRVTISVDSSKNQFSLKLSSVTAADTAVYYCARKDAYSDAFNLWGQGTLVTVSS | 7.92 | 14.8 |  |  | 137 | 11.7 | 499 | 0.0122 | 0.00835 | 5.13 ng/mL and 4.86 ng/mL and 6.3 ng/mL | 11.5 ng/mL and 13.1 ng/mL and 13 ng/mL | 9.27 ng/mL and 8.88 ng/mL and 9.23 ng/mL | 7.84 | 13.8 | 7.51 | 9.52 | EC50 (ng/ml), IL-2 secretion by PBMC; anti-CD3 1 ug/ml, 50000 PD-L1 expressing CHO cells/well [13]: 12.8 ng/mL; EC50 (ng/ml), IL-2 secretion by PBMC; anti-CD3 1 ug/ml, 100000 PD-L1 expressing CHO cells/well [13]: 86.2 ng/mL; EC50 (ng/ml), IL-2 secretion by PBMC; anti-CD3 1 ug/ml, 200000 PD-L1 expressing CHO cells/well [13]: 80.6 ng/mL; EC50 (ng/ml), IL-2 secretion by PBMC; anti-CD3 2 ug/ml, 50000 PD-L1 expressing CHO cells/well [13]: 52 ng/mL; EC50 (ng/ml), IL-2 secretion by PBMC; anti-CD3 2 ug/ml, 100000 PD-L1 expressing CHO cells/well [13]: 41.9 ng/mL; EC50 (ng/ml), IL-2 secretion by PBMC; anti-CD3 2 ug/ml, 200000 PD-L1 expressing CHO cells/well [13]: 30.1 ng/mL; max. activation (%), NF-kB reporter gene, HCC827 +IFNg; HSA: no [3]: 134%; max. activation (%), NF-kB reporter gene, HCC827 -IFNg; HSA: no [3]: 111%; EC50 in ng/ml, IL-2 secretion, PBMC stimulated with SEA [14]: 39.9 ng/mL

Now from value to binder, other results behind:

Row | EC50 in ng/ml, CD137 activation, NFkB-luciferase Jurkat reporter assay, PD-L1 expressing CHO cells, 6h, + HSA [1] [ng/mL] | EC50 in ng/ml, CD137 activation, NFkB-luciferase Jurkat reporter assay, PD-L1 expressing CHO cells, 24h, + HSA [2] [ng/mL] | binding result (human serum albumin) | binding result [4] | IC50 (ng/ml), neutralization of PD-L1/PD-1 interaction, NFAT-luciferase reporter gene assay [5] [ng/mL] | EC50 in ng/ml, CD137 activation, NFkB-luciferase Jurkat reporter assay, CHO-PD-L1 cells [6] [ng/mL] | max. activation (%), NF-kB reporter gene, CHO-PD-L1; HSA: no [3] [%] | IC50 (biotinylated human PD-L1 [7]) [µg/mL] | IC50 (biotinylated human PD-L1 [8]) [µg/mL] | EC50 in ng/ml, CD137 activation, NFkB-luciferase Jurkat reporter assay, CHO-PD-L1 cells [9] | EC50 in ng/ml, CD137 activation, NFkB-luciferase Jurkat reporter assay, HCC827 cells without IFNg [10] | EC50 in ng/ml, CD137 activation, NFkB-luciferase Jurkat reporter assay, HCC827 cells stimulated with IFNg [11] | EC50 in ng/ml, CD137 activation, NFkB-luciferase Jurkat reporter assay, PD-L1 expressing CHO cells, 6h [1] [ng/mL] | EC50 in ng/ml, CD137 activation, NFkB-luciferase Jurkat reporter assay, PD-L1 expressing CHO cells, 24h [2] [ng/mL] | EC50 in ng/ml, CD137 activation, NFkB-luciferase Jurkat reporter assay, HCC827 with IFNy stimulation, 24h [12] [ng/mL] | EC50 in ng/ml, CD137 activation, NFkB-luciferase Jurkat reporter assay, HCC827 without IFNy stimulation, 24h [12] [ng/mL] | Binder | also measured
3 | 70.9 | 121 | binds | binds |  |  |  |  |  |  |  |  |  |  |  |  | PRO1058: 38_27_C05 sc01 scDb-i/33-03-G02 sc01 scDb-o/mxr HSA (23-13-A01-sc03, sk17sh4) (other, Trispecific scTriabody (scDb-scFv)) DIQMTQSPSSLSASVGDRVTITCQASQSINDYLAWYQQKPGKAPKLLIYKASTLASGVPSRFSGSGSGTDFTLTISSLQPEDFATYYCQQGYIITDIDNVFGTGTKVTVLGGGGGSQVQLQESGPGLVKPSETLSLTCKVSGFSFNNDYDMCWIRQPPGKGLEWIGCIDTGDGSTYYASWAKGRVTISVDSSKNQFSLKLSSVTAADTAVYYCAREAASSSGYGMGYFDLWGQGTLVTVSSGGGGSGGGGSGGGGSGGGGSIQMTQSPSSLSASVGDRVTITCQSSQSVYDNNWLAWYQQKPGKAPKLLIYRASNLASGVPSRFSGSGSGTDFTLTISSLQPEDFATYYCQGTYLSSNWYWAFGTGTKVTVLGGGGGSQVQLQESGPGLVKPSETLSLTCKVSGFSFSSGYDMCWIRQPPGKGLEWIGCVVAGSVDITYYASWAKGRVTISVDSSKNQFSLKLSSVTAADTAVYYCARKDAYSDAFNLWGQGTLVTVSSGGGGSGGGGSVVMTQSPSSLSASVGDRVTITCQASQIISSRSAWYQQKPGQPPKLLIYQASKLASGVPSRFSGSGSGTDFTLTISSLQPEDFATYYCQCTYIDSNFGAFGGGTKLTVLGGGGGSGGGGSGGGGSGGGGSEVQLVESGGGLVQPGGSLRLSCAASGFSFSSSYWICWVRQAPGKGLEWVGCVFTGDGTTYYASWAKGRFTISRDNSKNTVYLQMNSLRAEDTATYFCARPVSVYYYGMDLWGQGTLVTVSS | max. activation (%), NF-kB reporter gene, CHO-PD-L1; HSA: yes, 24h [3]: 36.2%
4 |  |  | binds | binds |  |  |  |  |  |  |  |  |  |  |  |  | PRO966 (= PRO1052): 38_27_C05 sc01 scDb-i/33-03-G02 sc01 scDb-o/19-01-H04-sc03 scFv (other, Trispecific scTriabody (scDb-scFv)) DIQMTQSPSSLSASVGDRVTITCQASQSINDYLAWYQQKPGKAPKLLIYKASTLASGVPSRFSGSGSGTDFTLTISSLQPEDFATYYCQQGYIITDIDNVFGTGTKVTVLGGGGGSQVQLQESGPGLVKPSETLSLTCKVSGFSFNNDYDMCWIRQPPGKGLEWIGCIDTGDGSTYYASWAKGRVTISVDSSKNQFSLKLSSVTAADTAVYYCAREAASSSGYGMGYFDLWGQGTLVTVSSGGGGSGGGGSGGGGSGGGGSIQMTQSPSSLSASVGDRVTITCQSSQSVYDNNWLAWYQQKPGKAPKLLIYRASNLASGVPSRFSGSGSGTDFTLTISSLQPEDFATYYCQGTYLSSNWYWAFGTGTKVTVLGGGGGSQVQLQESGPGLVKPSETLSLTCKVSGFSFSSGYDMCWIRQPPGKGLEWIGCVVAGSVDITYYASWAKGRVTISVDSSKNQFSLKLSSVTAADTAVYYCARKDAYSDAFNLWGQGTLVTVSSGGGGSGGGGSIQMTQSPSSLSASVGDRVTITCQSSESVYSNNQLSWYQQKPGQPPKLLIYDASDLASGVPSRFSGSGSGTDFTLTISSLQPEDFATYYCAGGFSSSSDTAFGGGTKLTVLGGGGGSGGGGSGGGGSGGGGSEVQLVESGGGLVQPGGSLRLSCAASGFSLSSNAMGWVRQAPGKGLEYIGIISVGGFTYYASWAKGRFTISRDNSKNTVYLQMNSLRAEDTATYFCARDRHGGDSSGAFYLWGQGTLVTVSS | 
5 | 77.7 | 78.2 |  |  |  | 79.1 |  |  |  | 79.5 ng/mL and 104 ng/mL and 86.5 ng/mL | 212 ng/mL and 110 ng/mL and 112 ng/mL | 114 ng/mL and 145 ng/mL and 108 ng/mL | 56.5 | 46.6 | 52.8 | 47.5 | Urelumab (antibody, V domains shown) VH: QVQLQQWGAGLLKPSETLSLTCAVYGGSFSGYYWSWIRQSPEKGLEWIGEINHGGYVTYNPSLESRVTISVDTSKNQFSLKLSSVTAADTAVYYCARDYGPGNYDWYFDLWGRGTLVTVSS VL: EIVLTQSPATLSLSPGERATLSCRASQSVSSYLAWYQQKPGQAPRLLIYDASNRATGIPARFSGSGSGTDFTLTISSLEPEDFAVYYCQQRSNWPPALTFGGGTKVEIK | 

— EP3470428A1 (Numab Innovation AG, dated 2019)
